Measured values from patent US20130040894A1, “INHIBITION OR ACTIVATION OF SERINE/THREONINE ULK3 KINASE ACTIVITY” (TALLINN UNIVERSITY OF TECHNOLOGY, priority 2009, published 2013).

Tested on: GLI1
Assay: In vitro kinase assay, phosphorylation of GLI1
Type: biochemical, human
Method: Three overlapping human GLI1 domains corresponding to amino acids 1-433, 426-754 and 726-1106 were cloned into pET-15b vector (Novagen) between NdeI and BamHI sites. GLI1 amino acid sequence is provided as SEQ ID NO: 2). The fragments were expressed in BL21(DE3)pLys E. coli strain overnight at 21° C. using 0.1 mM IPTG and purified using Ni-CAM™ HC resin (Sigma-Aldrich) according to the manufacturer's recommendations. The proteins were eluted by PBS and verified by Western Blot (WB).
HEK293 cells were transfected with 13.5 μg of FLAG-tagged constructs expressed GLI1, GLI2, GLI3, ULK3, ULK3(K44R), ULK3(K139R) or FLAG-CMV-4 empty vector on 10 cm plates. The cells were lysed with 0.5 ml of Lysis Buffer (50 mM Tris HCl, pH 7.4, 150 mM NaCl, 1 mM EDTA, 1% Triton X-100) containing protease inhibitor cocktail (PIC) (Roche Applied Science). The lysates were centrifuged for 15 min at 4° C. and 15000 g, and the supernatants were used for immunoprecipitation (IP). IP was performed using anti-FLAG-M2 affinity gel (Sigma-Aldrich) in batch format according to the manufacture's instructions. Immune complexes were washed three times with 500 μl of Kinase Buffer (KB) (50 mM HEPES, pH 7.4, 20 mM MgCl2, 25 μM ATP) and resuspended in 12.5 μl of KB. One fifth of the immuno-complexes was subjected to WB and the rest was used for the kinase assay.
Kinase reactions were carried out in KB in a total volume of 20 μl of in the presence of 1 μCi of [γ-^32P]ATP per reaction. We used 1 μl of the immunoprecipitated ULK3, ULK3(K44R) or ULK3(K139R) mixed with 5 μl of the GLI-M2 immunocomplexes or 5 μl of bacterially expressed and purified His-GLI1 fragments. Kinase reactions were held at 30° C. for 30 min and terminated by adding of 5 μl of 4× Laemmli Sample Buffer. Proteins were resolved by SDS-PAGE. The gel was dried at 80° C. for 2 h, and autoradiography was performed using Bio-Rad Personal Molecular Imager FX.
We also assayed whether ULK3 is able to phosphorylate GLI proteins. FLAG-tagged GLI1, GLI2 and GLI3 proteins were expressed and immunoprecipitated from HEK293 cells and used as substrates for immunopurified ULK3 in the in vitro kinase assay. ULK3 was able to phosphorylate GLI proteins but with different efficiency (FIG. 3B). […] To support these findings and identify the regions in GLI1 protein that are phosphorylated by ULK3, we used bacterially expressed His-tagged fragments of GLI1 as substrate for ULK3 kinase. Two of them—GLI1(1-433) and GLI1(726-1106)—were phosphorylated by ULK3.

[1] = bacterially expressed His-tagged fragment

B1: ULK3: human serine/threonine kinase, 472 amino acids (SEQ ID NO: 1), overexpressed from cloned cDNA or immunopurified FLAG-tagged (protein, listed as Homo sapiens)
chain: MAGPGWGPPRLDGFILTERLGSGTYATVYKAYAKKDTREVVAIKCVAKKSLNKASVENLLTEIEILKGIRHPHIVQLKDFQWDSDNIYLIMEFCAGGDLSRFIHTRRILPEKVARVFMQQLASALQFLHERNISHLDLKPQNILLSSLEKPHLKLADFGFAQHMSPWDEKHVLRGSPLYMAPEMVCQRQYDARVDLWSMGVILYEALFGQPPFASRSFSELEEKIRSNRVIELPLRPLLSRDCRDLLQRLLERDPSRRISFQDFFAHPWVDLEHMPSGESLGRATALVVQAVKKDQEGDSAAALSLYCKALDFFVPALHYEVDAQRKEAIKAKVGQYVSRAEELKAIVSSSNQALLRQGTSARDLLREMARDKPRLLAALEVASAAMAKEEAAGGEQDALDLYQHSLGELLLLLAAEPPGRRRELLHTEVQNLMARAEYLKEQVKMRESRWEADTLDKEGLSESVRSSCTLQ
modifications: PEPTIDE (1)..(472) ULK3
FLAG-tagged GLI1 immunoprecipitated from HEK293 cells
  phosphorylation of GLI1: significantly lower intensity as compared to GLI2
[1]
  phosphorylation of GLI1(1-433) fragment: phosphorylated
  phosphorylation of GLI1(726-1106) fragment: phosphorylated
  phosphorylation of central part of GLI1 (amino acids 426-754): not phosphorylated
